Values of other authors as cited in publication PMC6293969.

Legend:
SRSF1 (Homo sapiens) = SRSF1 (Homo sapiens) (UniProt Q07955)
CLK1 (Homo sapiens) = CLK1 (Homo sapiens) (UniProt P49759)
Chain of UniProt P49759 (P49759 whole entry): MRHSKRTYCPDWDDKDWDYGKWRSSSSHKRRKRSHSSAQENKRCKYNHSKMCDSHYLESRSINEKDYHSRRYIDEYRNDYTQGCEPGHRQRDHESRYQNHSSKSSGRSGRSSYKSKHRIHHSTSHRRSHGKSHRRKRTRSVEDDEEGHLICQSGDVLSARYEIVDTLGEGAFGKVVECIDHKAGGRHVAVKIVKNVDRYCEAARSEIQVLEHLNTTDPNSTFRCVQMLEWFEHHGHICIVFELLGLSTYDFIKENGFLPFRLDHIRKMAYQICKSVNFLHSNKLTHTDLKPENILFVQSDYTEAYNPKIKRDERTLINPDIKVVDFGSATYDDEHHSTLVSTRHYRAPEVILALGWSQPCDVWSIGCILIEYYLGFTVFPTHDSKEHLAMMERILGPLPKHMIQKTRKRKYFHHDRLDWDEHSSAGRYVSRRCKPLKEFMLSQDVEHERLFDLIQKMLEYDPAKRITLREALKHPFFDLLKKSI

Chain of UniProt Q07955 (Q07955 2-248): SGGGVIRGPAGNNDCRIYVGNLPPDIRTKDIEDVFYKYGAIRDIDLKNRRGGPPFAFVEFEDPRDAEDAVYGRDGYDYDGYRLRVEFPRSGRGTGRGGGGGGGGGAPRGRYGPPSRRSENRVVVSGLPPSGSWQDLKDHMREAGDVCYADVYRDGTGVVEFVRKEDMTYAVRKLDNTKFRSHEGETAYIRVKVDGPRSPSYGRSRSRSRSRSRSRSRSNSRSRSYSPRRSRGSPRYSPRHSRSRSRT

Kd (SRSF1 (Homo sapiens)): 100 nM | Kd (CLK1 (Homo sapiens)): 20 nM
Substance: SRPK1 (from UniProt Q96SB4)
